The text below walks through data of PMC6127989, “Cytosolic GAPDH as a redox-dependent regulator of energy metabolism” (BMC Plant Biology, 2018).

What all share (conditions): both partners purified
The target of experiment [1] is T1, reduced recombinant GapC1 (cytosolic NAD-dependent glyceraldehyde-3-phosphate dehydrogenase) from A. thaliana (A. thaliana, UniProt P25858 1-338).
T1 construct: GapC1, cytosolic NAD-dependent glyceraldehyde-3-phosphate dehydrogenase, Arabidopsis thaliana, At3g04120; Used as analyte on VDAC3 (pre-treated with 2 mM DTT) and immobilised via NHS in buffer with 2 mM DTT for Trx-h3; also called reduced GapC1; GAPDH; source: desalted before use; pre-treated with 2 mM DTT
T1 sequence (P25858 whole entry): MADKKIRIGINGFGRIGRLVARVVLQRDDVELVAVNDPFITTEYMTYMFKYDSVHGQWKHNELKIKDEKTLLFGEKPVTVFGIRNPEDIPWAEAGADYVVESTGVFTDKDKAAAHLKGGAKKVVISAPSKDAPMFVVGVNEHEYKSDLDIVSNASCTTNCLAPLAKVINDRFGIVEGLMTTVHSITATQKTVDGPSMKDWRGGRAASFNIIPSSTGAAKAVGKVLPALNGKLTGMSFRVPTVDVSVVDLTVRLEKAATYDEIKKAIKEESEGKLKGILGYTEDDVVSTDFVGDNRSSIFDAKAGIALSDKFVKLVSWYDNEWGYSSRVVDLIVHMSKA
As to the kind of experiment: reflectance interferometry (RIf); VDAC3 in a polymer-supported DOPC membrane on the chip; GapC1 pre-treated with 2 mM DTT (reduced) injected at different amounts in a flow chamber; rinsing with HBS buffer; association and dissociation phases fitted separately; protein-free lipid membrane as negative control.

The target of experiment [2] is T2, oxidized recombinant GapC1 from A. thaliana (pretreated with 0.5 mM H2O2 + 0.5 mM GSH) (A. thaliana, UniProt P25858 1-338, oxidized by pretreatment with 0.5 mM H2O2 + 0.5 mM GSH; modified residues not stated for this sample).
T2 construct: GapC1, cytosolic NAD-dependent glyceraldehyde-3-phosphate dehydrogenase, Arabidopsis thaliana, At3g04120; Same recombinant protein as m1, oxidised in vitro; also called oxidized GapC1; source: desalted before use; pre-treated with 0.5 mM H2O2 + 0.5 mM GSH
T2 sequence (P25858 whole entry): as above
Briefly: reflectance interferometry (RIf); VDAC3 in a polymer-supported DOPC membrane on the chip; GapC1 pre-treated with 0.5 mM H2O2 + 0.5 mM GSH (oxidized) injected at different amounts in a flow chamber; rinsing with HBS buffer; association and dissociation phases fitted separately; protein-free lipid membrane as negative control.

Experiment [3] addresses T1, reduced recombinant GapC1 (cytosolic …). As to the kind of experiment: reflectance interferometry (RIf); GapC1 (or the control mCitrine) immobilised via NHS on a PEG surface; Trx-h3 injected at different concentrations; 20 mM HBS-buffer (100 mM NaCl, 0.01% Triton X-100, pH 7.5) with 2 mM DTT; KD from equilibrium binding signals by Scatchard plot.

B1: recombinant voltage-dependent anion-selective channel VDAC3 from A. thaliana, reconstituted in a lipid bilayer (natural protein, UniProt Q9SMX3 1-274, looked up)
chain: MVKGPGLYTEIGKKARDLLYRDYQGDQKFSVTTYSSTGVAITTTGTNKGSLFLGDVATQVKNNNFTADVKVSTDSSLLTTLTFDEPAPGLKVIVQAKLPDHKSGKAEVQYFHDYAGISTSVGFTATPIVNFSGVVGTNGLSLGTDVAYNTESGNFKHFNAGFNFTKDDLTASLILNDKGEKLNASYYQIVSPSTVVGAEISHNFTTKENAITVGTQHALDPLTTVKARVNNAGVANALIQHEWRPKSFFTVSGEVDSKAIDKSAKVGIALALKP
notes: VDAC3, mitochondrial outer membrane voltage-dependent anion-selective channel 3, Arabidopsis thaliana; cDNA cloned into pCold I with SacI and XbaI; Protein:lipid 1:1000 in DOPC; formed a polymer-supported membrane on the RIf chip; The tag is inferred from the vector; also called AtVDAC3
For B1, the figures for the equilibrium dissociation constant (Kd) in experiment [1] and in experiment [2] were 236 nM and 556 nM, respectively.

B2: recombinant thioredoxin Trx-h3 from A. thaliana (natural protein, UniProt Q42403 1-118, looked up)
chain: MAAEGEVIACHTVEDWTEKLKAANESKKLIVIDFTATWCPPCRFIAPVFADLAKKHLDVVFFKVDVDELNTVAEEFKVQAMPTFIFMKEGEIKETVVGAAKEEIIANLEKHKTVVAAA
notes: Thioredoxin h3 (Trx-h3), Arabidopsis thaliana
As to B2, the Kd in experiment [3] was found to be 40000 nM.

One may read the Kd as a measure of binding affinity in units of concentration.
